Test system: Escherichia coli TOP10
Experiment: shrunken log2 fold change of peptide-encoding DNA abundance (4.5 h post-induction vs induction); higher = less antimicrobial activity (less host growth inhibition)
Conditions: time post-induction: 4.5 h; library: site-saturation at positions 5, 18, 19, 20
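Further: peptides expressed intracellularly from a pBAD plasmid library in pooled LB shake-flask culture, induced with 0.3% L-arabinose, DNA abundance read by NGS, three biological replicates, DESeq2 with apeglm shrinkage.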

| Sequence | shrunken log2 fold change |
| --- | --- |
| RRIRYRPPRLPRPRPRPIIVPRP | -0.249 |
| RRIRYRPPRLPRPRPRPIKFPRP | -0.244 |
| RRIRYRPPRLPRPRPRPIKKPRP | 0.017 |
| RRIRYRPPRLPRPRPRPIPPPRP | -0.171 |
| RRIRYRPPRLPRPRPRPIQPPRP | 0.00143 |
| RRIRYRPPRLPRPRPRPISSPRP | -0.262 |
| RRIRYRPPRLPRPRPRPITGPRP | 0.0176 |
| RRIRYRPPRLPRPRPRPITMPRP | -1.13 |
| RRIRYRPPRLPRPRPRPITTPRP | 0.0271 |
| RRIRYRPPRLPRPRPRPIVCPRP | -0.134 |
| RRIRYRPPRLPRPRPRPIWYPRP | -0.0575 |
| RRIRYRPPRLPRPRPRPIYKPRP | -0.396 |
| RRIRYRPPRLPRPRPRPKAVPRP | -0.163 |
| RRIRYRPPRLPRPRPRPKAYPRP | 0.00787 |
| RRIRYRPPRLPRPRPRPKCQPRP | -0.182 |
| RRIRYRPPRLPRPRPRPKEFPRP | -0.00973 |
| RRIRYRPPRLPRPRPRPKEMPRP | -0.259 |
| RRIRYRPPRLPRPRPRPKERPRP | -0.002 |
| RRIRYRPPRLPRPRPRPKFQPRP | -0.0557 |
| RRIRYRPPRLPRPRPRPKGEPRP | -0.212 |
| RRIRYRPPRLPRPRPRPKGRPRP | -0.258 |
| RRIRYRPPRLPRPRPRPKGSPRP | -0.143 |
| RRIRYRPPRLPRPRPRPKLVPRP | -0.067 |
| RRIRYRPPRLPRPRPRPKMMPRP | -1.3 |
| RRIRYRPPRLPRPRPRPKMSPRP | -0.562 |

| Sequence | shrunken log2 fold change |
| --- | --- |
| RRIRYRPPRLPRPRPRPKNSPRP | -1.22 |
| RRIRYRPPRLPRPRPRPKNWPRP | -0.3 |
| RRIRYRPPRLPRPRPRPKPFPRP | 0.0506 |
| RRIRYRPPRLPRPRPRPKPNPRP | -0.158 |
| RRIRYRPPRLPRPRPRPKQAPRP | 0.0341 |
| RRIRYRPPRLPRPRPRPKQSPRP | -0.156 |
| RRIRYRPPRLPRPRPRPKRCPRP | 0.0441 |
| RRIRYRPPRLPRPRPRPKTIPRP | -0.421 |
| RRIRYRPPRLPRPRPRPKTSPRP | -0.595 |
| RRIRYRPPRLPRPRPRPKWGPRP | -0.297 |
| RRIRYRPPRLPRPRPRPKWHPRP | -0.358 |
| RRIRYRPPRLPRPRPRPKYGPRP | -0.176 |
| RRIRYRPPRLPRPRPRPKYRPRP | -0.0133 |
| RRIRYRPPRLPRPRPRPLAEPRP | -0.149 |
| RRIRYRPPRLPRPRPRPLALPRP | -0.816 |
| RRIRYRPPRLPRPRPRPLCMPRP | -0.795 |
| RRIRYRPPRLPRPRPRPLCYPRP | -1 |
| RRIRYRPPRLPRPRPRPLDIPRP | -1.69 |
| RRIRYRPPRLPRPRPRPLDPPRP | -0.307 |
| RRIRYRPPRLPRPRPRPLGFPRP | -0.662 |
| RRIRYRPPRLPRPRPRPLGPPRP | 0.157 |
| RRIRYRPPRLPRPRPRPLICPRP | -0.255 |
| RRIRYRPPRLPRPRPRPLINPRP | -0.279 |
| RRIRYRPPRLPRPRPRPLIWPRP | -0.256 |
| RRIRYRPPRLPRPRPRPLKWPRP | -0.258 |

| Sequence | shrunken log2 fold change |
| --- | --- |
| RRIRYRPPRLPRPRPRPLMRPRP | -0.0447 |
| RRIRYRPPRLPRPRPRPLNYPRP | -0.0845 |
| RRIRYRPPRLPRPRPRPLPPPRP | 0.0954 |
| RRIRYRPPRLPRPRPRPLPSPRP | -0.14 |
| RRIRYRPPRLPRPRPRPLQEPRP | -0.218 |
| RRIRYRPPRLPRPRPRPLRFPRP | -0.28 |
| RRIRYRPPRLPRPRPRPLRLPRP | 0.077 |
| RRIRYRPPRLPRPRPRPLSQPRP | 0.0967 |
| RRIRYRPPRLPRPRPRPLVTPRP | -0.616 |
| RRIRYRPPRLPRPRPRPLWKPRP | -0.0695 |
| RRIRYRPPRLPRPRPRPLWTPRP | -0.563 |
| RRIRYRPPRLPRPRPRPLYFPRP | -1.15 |
| RRIRYRPPRLPRPRPRPMALPRP | -0.142 |
| RRIRYRPPRLPRPRPRPMCSPRP | -0.116 |
| RRIRYRPPRLPRPRPRPMGIPRP | 0.00902 |
| RRIRYRPPRLPRPRPRPMHDPRP | -0.598 |
| RRIRYRPPRLPRPRPRPMIDPRP | -0.00999 |
| RRIRYRPPRLPRPRPRPMKEPRP | -0.00804 |
| RRIRYRPPRLPRPRPRPMKYPRP | -0.00968 |
| RRIRYRPPRLPRPRPRPMMFPRP | -0.091 |
| RRIRYRPPRLPRPRPRPMNAPRP | -0.00745 |
| RRIRYRPPRLPRPRPRPMNHPRP | -0.262 |
| RRIRYRPPRLPRPRPRPMQPPRP | -0.0124 |
| RRIRYRPPRLPRPRPRPMRLPRP | -0.039 |
| RRIRYRPPRLPRPRPRPMRWPRP | 0.448 |

| Sequence | shrunken log2 fold change |
| --- | --- |
| RRIRYRPPRLPRPRPRPMSPPRP | -0.0952 |
| RRIRYRPPRLPRPRPRPMTDPRP | -0.0354 |
| RRIRYRPPRLPRPRPRPMVEPRP | -0.201 |
| RRIRYRPPRLPRPRPRPMWDPRP | 0.0162 |
| RRIRYRPPRLPRPRPRPMYQPRP | -0.124 |
| RRIRYRPPRLPRPRPRPNAAPRP | 0.216 |
| RRIRYRPPRLPRPRPRPNADPRP | -0.0823 |
| RRIRYRPPRLPRPRPRPNALPRP | -0.236 |
| RRIRYRPPRLPRPRPRPNATPRP | -0.222 |
| RRIRYRPPRLPRPRPRPNAVPRP | -0.00911 |
| RRIRYRPPRLPRPRPRPNAYPRP | -0.212 |
| RRIRYRPPRLPRPRPRPNCCPRP | -0.518 |
| RRIRYRPPRLPRPRPRPNCPPRP | -0.272 |
| RRIRYRPPRLPRPRPRPNDFPRP | -0.0506 |
| RRIRYRPPRLPRPRPRPNEQPRP | 0.0039 |
| RRIRYRPPRLPRPRPRPNERPRP | -0.0497 |
| RRIRYRPPRLPRPRPRPNEVPRP | -0.00663 |
| RRIRYRPPRLPRPRPRPNFEPRP | -0.242 |
| RRIRYRPPRLPRPRPRPNGHPRP | -0.24 |
| RRIRYRPPRLPRPRPRPNGNPRP | -0.561 |
| RRIRYRPPRLPRPRPRPNHGPRP | -0.0102 |
| RRIRYRPPRLPRPRPRPNKAPRP | -0.0417 |
| RRIRYRPPRLPRPRPRPNLRPRP | -0.341 |
| RRIRYRPPRLPRPRPRPNLTPRP | -0.372 |
| RRIRYRPPRLPRPRPRPNNMPRP | -0.633 |

| Sequence | shrunken log2 fold change |
| --- | --- |
| RRIRYRPPRLPRPRPRPNNVPRP | -0.323 |
| RRIRYRPPRLPRPRPRPNSGPRP | -0.01 |
| RRIRYRPPRLPRPRPRPNSRPRP | -0.156 |
| RRIRYRPPRLPRPRPRPNTCPRP | -0.155 |
| RRIRYRPPRLPRPRPRPNVLPRP | -0.554 |
| RRIRYRPPRLPRPRPRPNVVPRP | -0.274 |
| RRIRYRPPRLPRPRPRPNWAPRP | -0.267 |
| RRIRYRPPRLPRPRPRPNWCPRP | 0.01 |
| RRIRYRPPRLPRPRPRPNYDPRP | -0.746 |
| RRIRYRPPRLPRPRPRPNYYPRP | -1.16 |
| RRIRYRPPRLPRPRPRPPAAPRP | 0.454 |
| RRIRYRPPRLPRPRPRPPALPRP | -0.1 |
| RRIRYRPPRLPRPRPRPPAYPRP | -0.767 |
| RRIRYRPPRLPRPRPRPPDRPRP | 0.118 |
| RRIRYRPPRLPRPRPRPPFMPRP | -0.422 |
| RRIRYRPPRLPRPRPRPPFTPRP | -0.244 |
| RRIRYRPPRLPRPRPRPPHKPRP | -0.549 |
| RRIRYRPPRLPRPRPRPPKMPRP | 0.28 |
| RRIRYRPPRLPRPRPRPPKSPRP | -0.0324 |
| RRIRYRPPRLPRPRPRPPNEPRP | -0.106 |
| RRIRYRPPRLPRPRPRPPNYPRP | -0.523 |
| RRIRYRPPRLPRPRPRPPPHPRP | 0.737 |
| RRIRYRPPRLPRPRPRPPQLPRP | -0.371 |
| RRIRYRPPRLPRPRPRPPQMPRP | 0.0297 |
| RRIRYRPPRLPRPRPRPPQQPRP | 0.0729 |

| Sequence | shrunken log2 fold change |
| --- | --- |
| RRIRYRPPRLPRPRPRPPQTPRP | -0.314 |
| RRIRYRPPRLPRPRPRPPRGPRP | 0.284 |
| RRIRYRPPRLPRPRPRPPVCPRP | 0.065 |
| RRIRYRPPRLPRPRPRPQADPRP | -0.323 |
| RRIRYRPPRLPRPRPRPQAHPRP | -0.149 |
| RRIRYRPPRLPRPRPRPQASPRP | -0.0259 |
| RRIRYRPPRLPRPRPRPQCTPRP | -0.292 |
| RRIRYRPPRLPRPRPRPQDRPRP | -0.00674 |
| RRIRYRPPRLPRPRPRPQDTPRP | -0.547 |
| RRIRYRPPRLPRPRPRPQFMPRP | -0.074 |
| RRIRYRPPRLPRPRPRPQGTPRP | 0.034 |
| RRIRYRPPRLPRPRPRPQGWPRP | 0.031 |
| RRIRYRPPRLPRPRPRPQHNPRP | -1.13 |
| RRIRYRPPRLPRPRPRPQHWPRP | 0.0376 |
| RRIRYRPPRLPRPRPRPQHYPRP | -0.466 |
| RRIRYRPPRLPRPRPRPQKKPRP | 0.0261 |
| RRIRYRPPRLPRPRPRPQKWPRP | -0.16 |
| RRIRYRPPRLPRPRPRPQLYPRP | -0.206 |
| RRIRYRPPRLPRPRPRPQNQPRP | -0.562 |
| RRIRYRPPRLPRPRPRPQQKPRP | 0.0376 |
| RRIRYRPPRLPRPRPRPQRTPRP | -0.335 |
| RRIRYRPPRLPRPRPRPQSEPRP | -0.37 |
| RRIRYRPPRLPRPRPRPQSLPRP | -0.0376 |
| RRIRYRPPRLPRPRPRPQTMPRP | -0.23 |
| RRIRYRPPRLPRPRPRPQWLPRP | -0.0323 |

From the supplement of paper PMC9112550, “Optimization of the antimicrobial peptide Bac7 by deep mutational scanning” (BMC Biology, 2022)
